Test results reported in the supplement of paper PMC7125110.
± gives the standard error. Variants at the floor of the assay were thinned out.

B1: glmS ribozyme (parent)
chain: AUAAAAGCGCCAGAACUACAGAAAUGUAGUUGACGAGGAGGAGGUUUAUCGAAUUUUCGGCGGAUGCCUCCAAA

How the values were obtained:
Conditions in all cases: with glucosamine-6-phosphate
[1] = variants of: B1; assay: self-cleavage kobs at 160 uM GlcN6P; higher = faster cleavage; RNA array
Outline: (§1)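 Sequenced MiSeq chips were the platform: E. coli RNA polymerase transcribed barcoded ribozyme variants on them in situ, and a hybridised Cy3 probe tracked these at 37 °C. After glucosamine-6-phosphate (40 μM to 10 mM) in HEPES/KCl/Mg(OAc)2 buffer was flowed in, tiles were imaged over ~14 h. Signals normalised to baseline and to non-cleaving reference variants were reduced to per-tile medians and fit to one- or two-exponential decays to obtain kobs. kcat and KM were derived through weighted Michaelis–Menten fits across concentrations.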

[2] = variants of: B1; assay: self-cleavage kobs at 2500 uM GlcN6P; higher = faster cleavage; RNA array
Outline: as §1

[3] = variants of: B1; assay: self-cleavage kobs at 640 uM GlcN6P; higher = faster cleavage; RNA array
Outline: as §1

[4] = variants of: B1; assay: self-cleavage kobs at 10000 uM GlcN6P; higher = faster cleavage; RNA array
Outline: as §1

Variant | self-cleavage kobs at 160 uM GlcN6P [1] [s⁻¹] | self-cleavage kobs at 2500 uM GlcN6P [2] [s⁻¹] | self-cleavage kobs at 640 uM GlcN6P [3] [s⁻¹] | self-cleavage kobs at 10000 uM GlcN6P [4] [s⁻¹]
G13C A33C G41U U56C | < 1e-05 | < 1e-05 |  | 
A12U C61A U69G | < 1e-05 |  |  | 
G13A G44U C61G U65A | < 1e-05 | < 1e-05 | < 1e-05 | 
U30A G63A | < 1e-05 | < 1e-05 | < 1e-05 | < 1e-05
C10G G66C | < 1e-05 |  | < 1e-05 | < 1e-05
C10A C16A U47C U65C | < 1e-05 |  | < 1e-05 | 
G38U G59A | < 1e-05 |  |  | 
A12U G44A U65G C67U | 0.000241 ± 6.5e-05 | 0.00188 ± 0.00037 | 0.000969 ± 0.00016 | 
A33U A53U U69G | 3.89e-05 ± 1.8e-05 | 5.61e-05 ± 2.6e-05 | 0.000215 ± 7.6e-05 | 
A6G G29C C70G | < 1e-05 | < 1e-05 |  | < 1e-05
C8U G35A G43U | < 1e-05 | < 1e-05 | < 1e-05 | 
C8G A14G C34G | < 1e-05 | < 1e-05 | < 1e-05 | 
C8U A33G C34G A36U U65C | < 1e-05 | < 1e-05 |  | 
A33C G35A G51C | < 1e-05 | < 1e-05 | < 1e-05 | 
G26U G35A C50G U56G | 6.16e-05 ± 2.2e-05 | 8.89e-05 ± 1.8e-05 |  | 
A39C C50G | < 1e-05 |  | < 1e-05 | 
A6C U49A C50U | < 1e-05 |  | < 1e-05 | 
G35A G43A | < 1e-05 | < 1e-05 |  | 
A15C U30G C34U G40A U55A | < 1e-05 |  |  | 
A52G A64C | < 1e-05 | < 1e-05 | < 1e-05 | 
A12U G35U U55G | < 1e-05 |  |  | 
G43U G59U G60A | < 1e-05 | < 1e-05 |  | 
A36C G51C | < 1e-05 |  |  | < 1e-05
G35U A36U G37U G66U | < 1e-05 |  |  | 
G35C G62U C67G C70U | < 1e-05 |  |  | 
G7U C10G G13U A15U A39G | < 1e-05 | < 1e-05 | < 1e-05 | 

Variant | self-cleavage kobs at 160 uM GlcN6P [1] [s⁻¹] | self-cleavage kobs at 2500 uM GlcN6P [2] [s⁻¹] | self-cleavage kobs at 640 uM GlcN6P [3] [s⁻¹] | self-cleavage kobs at 10000 uM GlcN6P [4] [s⁻¹]
A15G G21C A39G G40C A48C C58U | < 1e-05 |  |  | 
C8A A42U U45G | < 1e-05 | < 1e-05 | < 1e-05 | 
C16U C58A | 0.000528 ± 0.00025 | 0.000305 ± 6.1e-05 | 0.000131 ± 2.7e-05 | 0.00094 ± 0.00015
G13A G51A C70A | 6.55e-05 ± 2.4e-05 |  |  | 
C8G C16U G35U C50G C70U | 0.000117 ± 2.9e-05 | 8.04e-05 ± 1.8e-05 | 0.000187 ± 5e-05 | 
C10G C11G G37C A53G | < 1e-05 | < 1e-05 |  | 
C34G G40C A48G U49G C71U | < 1e-05 | < 1e-05 | < 1e-05 | < 1e-05
U45C A53U U69C | 9.96e-05 ± 2.7e-05 | 0.000752 ± 0.00022 | 0.000489 ± 0.00012 | 
C11U A39U U49G | < 1e-05 | < 1e-05 | < 1e-05 | 
G38C G44A | < 1e-05 |  | < 1e-05 | < 1e-05
G32A G37C | < 1e-05 | < 1e-05 | < 1e-05 | < 1e-05
G13C U31G G43U | < 1e-05 | < 1e-05 |  | 
C16A U31C U56G | 3.96e-05 ± 1.5e-05 | 0.000266 ± 5.4e-05 | 9.16e-05 ± 1.9e-05 | 
G60C C61G | < 1e-05 | < 1e-05 | < 1e-05 | 
G41A U47A G62C | < 1e-05 | < 1e-05 | < 1e-05 | 
A15G A53G U65C | 6.49e-05 ± 1.6e-05 | 0.000485 ± 0.00011 | 0.000264 ± 6.9e-05 | 
A39C U65A C71G | < 1e-05 | < 1e-05 | < 1e-05 | 
C34A C61A | < 1e-05 | < 1e-05 | < 1e-05 | 
C11U U46A U54G | < 1e-05 | 4.93e-05 ± 1.7e-05 |  | 
G13A C34U | < 1e-05 | < 1e-05 | < 1e-05 | 
G62U G66C | < 1e-05 | < 1e-05 | < 1e-05 | < 1e-05
C11U A42U | < 1e-05 | < 1e-05 | < 1e-05 | 
U30C G35U C58U C61A | < 1e-05 | < 1e-05 | < 1e-05 | 
C16G G29C C71G | 9.16e-05 ± 1.5e-05 |  |  | 
U49C A53G | < 1e-05 |  | < 1e-05 | < 1e-05
C58G U69C | 6.56e-05 ± 2e-05 | 0.00011 ± 3.2e-05 | 0.000102 ± 3.1e-05 | 

Variant | self-cleavage kobs at 160 uM GlcN6P [1] [s⁻¹] | self-cleavage kobs at 2500 uM GlcN6P [2] [s⁻¹] | self-cleavage kobs at 640 uM GlcN6P [3] [s⁻¹] | self-cleavage kobs at 10000 uM GlcN6P [4] [s⁻¹]
C50A U57G U65C C70G | 8.04e-05 ± 2.6e-05 | 0.000108 ± 3.5e-05 | 0.000128 ± 3.7e-05 | 3.25e-05 ± 1.6e-05
C10G G35U | < 1e-05 | < 1e-05 | < 1e-05 | 
C8A U57C | < 1e-05 | < 1e-05 | < 1e-05 | 
G7U C16U | < 1e-05 |  |  | 
A33U U45G | < 1e-05 |  |  | 3.8e-05 ± 7.6e-06
C50G G59U C70U | 4.6e-05 ± 2.1e-05 | 8.37e-05 ± 3.5e-05 | 9.86e-05 ± 2.5e-05 | 
C8U C16U U54A C61A C71U | < 1e-05 |  | < 1e-05 | 
A14U A15G G35C | < 1e-05 | < 1e-05 |  | < 1e-05
A6G G35C G59A | < 1e-05 |  | < 1e-05 | 
A42C A64G C68U | < 1e-05 | < 1e-05 | < 1e-05 | 
A36G U45C | < 1e-05 | < 1e-05 | < 1e-05 | 
A12U A14U A15U | 0.000236 ± 5.9e-05 | 0.00219 ± 0.00059 | 0.00051 ± 0.00013 | 
A15U A33U C50U G51U G62U G63A C70U | 9.07e-05 ± 2.6e-05 | 7.13e-05 ± 2.3e-05 | 0.000118 ± 3.6e-05 | 
A12C G37A A52G | < 1e-05 | 5.63e-05 ± 1.7e-05 |  | 
A12G G32A G35U C68G | < 1e-05 |  |  | 
A6G A52G G63U | < 1e-05 | < 1e-05 | < 1e-05 | 
C8A G9U G32A G51A | < 1e-05 |  |  | 
G32C G51A C61G | < 1e-05 |  |  | 
G32C A42G A64U | < 1e-05 | < 1e-05 | < 1e-05 | 
G35A G40A U46C G60U | < 1e-05 | < 1e-05 |  | 
A42G U46G C67U | 0.000274 ± 8.3e-05 | 0.00148 ± 0.00058 |  | 
G7A G62C C67G | < 1e-05 | < 1e-05 | < 1e-05 | 
G9A U46G | < 1e-05 |  | < 1e-05 | < 1e-05
G37A G43C | < 1e-05 | < 1e-05 |  | 
U30C G41C U49G G51U C58A | < 1e-05 |  |  | 
G44A C61U | < 1e-05 | < 1e-05 | < 1e-05 | < 1e-05

Variant | self-cleavage kobs at 160 uM GlcN6P [1] [s⁻¹] | self-cleavage kobs at 2500 uM GlcN6P [2] [s⁻¹] | self-cleavage kobs at 640 uM GlcN6P [3] [s⁻¹] | self-cleavage kobs at 10000 uM GlcN6P [4] [s⁻¹]
A39U G44C A64U | < 1e-05 |  | < 1e-05 | 
A14C G37A G43A C58U C68G | < 1e-05 |  |  | 
A6C G35C G44U | < 1e-05 | < 1e-05 | < 1e-05 | 
A6U G35C | < 1e-05 |  | < 1e-05 | < 1e-05
A6C G7A | < 1e-05 |  | < 1e-05 | 
G38C G59A | < 1e-05 |  | < 1e-05 | 
A15G C16G A42G C67G | 7.28e-05 ± 3.4e-05 | 0.000115 ± 3.5e-05 | 0.000348 ± 6.7e-05 | 0.000521 ± 0.00022
A48G G62C | < 1e-05 |  |  | < 1e-05
A12U G60U C70G | < 1e-05 |  |  | 
U57C G60A | < 1e-05 | < 1e-05 | < 1e-05 | 
G9U A12C G40A G41U G43U G63U | < 1e-05 |  |  | 
C11A G43C C61G | < 1e-05 | < 1e-05 | < 1e-05 | 
U31A A42C C70G | < 1e-05 |  | < 1e-05 | 
A33U G63U | < 1e-05 | < 1e-05 | < 1e-05 | < 1e-05
C11U G37C A39U U47G | < 1e-05 |  |  | 
A6C G40A A52G C67U | < 1e-05 | < 1e-05 | < 1e-05 | 
G7A U49A | < 1e-05 | < 1e-05 | < 1e-05 | < 1e-05
C8U A39C G44A U56G U65A | < 1e-05 |  |  | 
U47A U65A | 0.000347 ± 7.5e-05 | 0.00331 ± 0.00064 | 0.00132 ± 0.00027 | 
C19A C34G A39C | < 1e-05 | < 1e-05 | < 1e-05 | 
G32C U69A | < 1e-05 |  | 0.00639 ± 0.0029 | 2.46e-05 ± 1.2e-05
G7C C70G | < 1e-05 | < 1e-05 | < 1e-05 | 
G35A G43A U47C U56C | < 1e-05 |  | < 1e-05 | 
